The test addresses T1, c-Met on EBC-1 cells (UniProt P08581 25-1390, limits assumed).
T1 construct: whole, on cells; EBC-1 is a human lung cancer line; also called c-Met on the cell surface
Put plainly: flow cytometry on EBC-1 cells; antibody bound at pH 7.4, cells fixed, then buffers of pH 1.5 to 7.4. The procedure:
In order to examine the degree of influence of pH conditions on the binding of anti-c-Met antibody and c-Met, the antibody was reacted with c-Met to form a binding therebetween, and then, treated with buffer with various pH to change the pH conditions, and then, the amount of the antibody which maintain the binding to the antigen (c-Met) at a certain pH was measured.
In particular, EBC-1 cells (ATCC) were counted and seeded in e-tubes at the amount of about 3×10⁵ cells per tube. As a medium, RPMI-1640 (Gibco) was employed. The cell culture was washed with phosphate buffer saline (PBS; pH 7.4) to remove the medium, and treated with each of c-Met antibodies A, B, and C, and c-Met bispecific antibody A, provided in Example 1, at the amount of 1 μg/ml per a tube, and then, kept in ice for 30 minutes. The obtained cells were treated with 4% formaldehyde for 10 minutes to be fixed. After washing with PBS(pH7.4), the cells treated with FACS buffer with various pH (0.2%(v/v) FBS (Fetal bovine serum) in PBS, pH 1.5, 2.0, 2.5, 3.0, 4.0, 5.0, 6.0, or 7.4) and kept in ice for 5 minutes. […] The c-Met antibody attached to cell surface was quantified by Flow cytometry (BD, FACS Cantoll).
On the technique in general: A flow cytometer gives signals particle by particle.

This note sets out measurements from US20160161500A1, “METHOD OF SCREENING AN ANTIBODY” (SAMSUNG ELECTRONICS CO., LTD., priority 2014, published 2016).

T1 sequence (P08581 25-1390 limits assumed): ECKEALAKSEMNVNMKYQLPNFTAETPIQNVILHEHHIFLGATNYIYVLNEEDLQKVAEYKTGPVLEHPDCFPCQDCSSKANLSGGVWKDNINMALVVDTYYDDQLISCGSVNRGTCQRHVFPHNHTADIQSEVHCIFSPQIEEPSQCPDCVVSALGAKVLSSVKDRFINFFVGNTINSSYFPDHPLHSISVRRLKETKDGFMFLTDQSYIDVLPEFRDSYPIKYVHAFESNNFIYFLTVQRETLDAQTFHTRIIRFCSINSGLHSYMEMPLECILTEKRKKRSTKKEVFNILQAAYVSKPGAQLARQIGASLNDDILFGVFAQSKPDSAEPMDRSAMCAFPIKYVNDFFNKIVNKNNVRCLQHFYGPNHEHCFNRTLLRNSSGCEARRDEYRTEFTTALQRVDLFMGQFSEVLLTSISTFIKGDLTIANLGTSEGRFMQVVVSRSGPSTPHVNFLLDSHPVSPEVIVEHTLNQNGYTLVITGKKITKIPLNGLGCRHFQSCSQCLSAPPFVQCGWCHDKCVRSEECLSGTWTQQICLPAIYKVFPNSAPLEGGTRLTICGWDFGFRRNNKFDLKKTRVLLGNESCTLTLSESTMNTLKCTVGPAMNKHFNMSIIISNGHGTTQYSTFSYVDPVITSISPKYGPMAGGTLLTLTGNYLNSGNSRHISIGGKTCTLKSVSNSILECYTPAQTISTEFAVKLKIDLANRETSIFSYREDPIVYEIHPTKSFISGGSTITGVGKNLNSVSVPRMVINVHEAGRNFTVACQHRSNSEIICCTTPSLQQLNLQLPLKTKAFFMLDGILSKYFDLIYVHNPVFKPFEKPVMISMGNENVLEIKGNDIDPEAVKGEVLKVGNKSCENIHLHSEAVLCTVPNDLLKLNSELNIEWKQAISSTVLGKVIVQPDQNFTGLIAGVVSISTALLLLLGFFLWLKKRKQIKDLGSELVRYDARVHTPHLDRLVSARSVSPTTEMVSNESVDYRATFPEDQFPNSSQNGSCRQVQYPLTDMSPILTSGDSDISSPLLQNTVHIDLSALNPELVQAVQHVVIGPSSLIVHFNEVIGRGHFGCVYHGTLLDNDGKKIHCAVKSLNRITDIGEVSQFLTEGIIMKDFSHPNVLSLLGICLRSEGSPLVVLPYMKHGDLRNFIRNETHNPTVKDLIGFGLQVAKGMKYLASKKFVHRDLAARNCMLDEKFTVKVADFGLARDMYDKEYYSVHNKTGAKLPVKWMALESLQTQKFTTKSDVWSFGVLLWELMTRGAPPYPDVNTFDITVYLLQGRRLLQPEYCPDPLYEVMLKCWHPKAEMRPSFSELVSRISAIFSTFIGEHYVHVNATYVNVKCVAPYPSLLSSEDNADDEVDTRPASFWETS

B1: Anti-c-Met/anti-EGFR bispecific antibody A (bispecific antibody, human IgG2, kappa)
heavy: EVQLVESGGGLVQPGGSLRLSCAASGFTFTDYYMSWVRQAPGKGLEWLGFIRNKANGYTTEYSASVKGRFTISRDNSKNTLYLQMNSLRAEDTAVYYCARDNWFAYWGQGTLVTVSSASTKGPSVFPLAPCSRSTSESTAALGCLVKDYFPEPVTVSWNSGALTSGVHTFPAVLQSSGLYSLSSVVTVPSSNFGTQTYTCNVDHKPSNTKVDKTVERKCCVECPPCPAPPVAGPSVFLFPPKPKDTLMISRTPEVTCVVVDVSHEDPEVQFNWYVDGVEVHNAKTKPREEQFNSTFRVVSVLTVVHQDWLNGKEYKCKVSNKGLPAPIEKTISKTKGQPREPQVYTLPPSREEMTKNQVSLTCLVKGFYPSDIAVEWESNGQPENNYKTTPPMLDSDGSFFLYSKLTVDKSRWQQGNVFSCSVMHEALHNHYTQKSLSLSPGKGGGGSGGGGSEVQLLESGGGLVQPGGSLRLSCAASGFTFSNYDMSWVRQAPGKCLEWVSGISHSSGSKYYADSVKGRFTISRDNSKNTLYLQMNSLRAEDTAVYYCAKDATPRPLKPFDYWGQGTLVTVSSGGGGSGGGGSGGGGSQSVLTQPPSASGTPGQRVTISCTGSSSNIGNNDVSWYQQLPGTAPKLLIYDDNKRPSGVPDRFSGSKSGTSASLAISGLRSEDEADYYCGSWDASLNAYVFGCGTKLTVLG
light: DIQMTQSPSSLSASVGDRVTITCKSSQSLLASGNQNNYLAWYQQKPGKAPKMLIIWASTRVSGVPSRFSGSGSGTDFTLTISSLQPEDFATYYCQQSYSRPYTFGQGTKVEIKRTVAAPSVFIFPPSDEQLKSGTASVVCLLNNFYPREAKVQWKVDNALQSGNSQESVTEQDSKDSTYSLSSTLTLSKADYEKHKVYACEVTHQGLSSPVTKSFNRGEC
notes: Anti-c-Met antibody A (IgG2) with an anti-EGFR scFv (VH-linker-VL) linked to the C-terminus of its Fc; also called c-Met bispecific antibody A
As to B1, the binding result is “binds”.

B2: Anti-c-Met antibody A (antibody, human IgG2, kappa, V domains shown)
VH: EVQLVESGGGLVQPGGSLRLSCAASGFTFTDYYMSWVRQAPGKGLEWLGFIRNKANGYTTEYSASVKGRFTISRDNSKNTLYLQMNSLRAEDTAVYYCARDNWFAYWGQGTLVTVSS
VL: DIQMTQSPSSLSASVGDRVTITCKSSQSLLASGNQNNYLAWYQQKPGKAPKMLIIWASTRVSGVPSRFSGSGSGTDFTLTISSLQPEDFATYYCQQSYSRPYTFGQGTKVEIKR
notes: IgG2 antibody
In the case of B2, the binding result was “binds”.
